Article PMC2989778

B1: TRAF2 (mouse, endogenous) (natural protein)
chain: MAAASVTSPGSLELLQPGFSKTLLGTRLEAKYLCSACKNILRRPFQAQCGHRYCSFCLTSILSSGPQNCAACVYEGLYEEGISILESSSAFPDNAARREVESLPAVCPNDGCTWKGTLKEYESCHEGLCPFLLTECPACKGLVRLSEKEHHTEQECPKRSLSCQHCRAPCSHVDLEVHYEVCPKFPLTCDGCGKKKIPRETFQDHVRACSKCRVLCRFHTVGCSEMVETENLQDHELQRLREHLALLLSSFLEAQASPGTLNQVGPELLQRCQILEQKIATFENIVCVLNREVERVAVTAEACSRQHRLDQDKIEALSNKVQQLERSIGLKDLAMADLEQKVSELEVSTYDGVFIWKISDFTRKRQEAVAGRTPAIFSPAFYTSRYGYKMCLRVYLNGDGTGRGTHLSLFFVVMKGPNDALLQWPFNQKVTLMLLDHNNREHVIDAFRPDVTSSSFQRPVSDMNIASGCPLFCPVSKMEAKNSYVRDDAIFIKAIVDLTGL
B2: TRAF3 (mouse, endogenous) (natural protein)
chain: MESSKKMDAAGTLQPNPPLKLQPDRGAGSVLVPEQGGYKEKFVKTVEDKYKCEKCRLVLCNPKQTECGHRFCESCMAALLSSSSPKCTACQESIIKDKVFKDNCCKREILALQVYCRNEGRGCAEQLTLGHLLVHLKNECQFEELPCLRADCKEKVLRKDLRDHVEKACKYREATCSHCKSQVPMIKLQKHEDTDCPCVVVSCPHKCSVQTLLRSELSAHLSECVNAPSTCSFKRYGCVFQGTNQQIKAHEASSAVQHVNLLKEWSNSLEKKVSLLQNESVEKNKSIQSLHNQICSFEIEIERQKEMLRNNESKILHLQRVIDSQAEKLKELDKEIRPFRQNWEEADSMKSSVESLQNRVTELESVDKSAGQAARNTGLLESQLSRHDQMLSVHDIRLADMDLRFQVLETASYNGVLIWKIRDYKRRKQEAVMGKTLSLYSQPFYTGYFGYKMCARVYLNGDGMGKGTHLSLFFVIMRGEYDALLPWPFKQKVTLMLMDQGSSRRHLGDAFKPDPNSSSFKKPTGEMNIASGCPVFVAQTVLENGTYIKDDTIFIKVIVDTSDLPDP

Molecular target: hCD40–BAFF-R_(His159-Tyr) chimera (human | mouse) (UniProt P25942)
Assay: co-IP

| Binder | fold increase in recruitment against hCD40–BAFF-RWT (60 min) [fold] |
| --- | --- |
| B1 | 5 |
| B2 | 4 |
